Test results taken from patent publication US12497460B2, “Anti-MSR1 antibodies and methods of use thereof” (REGENERON PHARMACEUTICALS, INC., priority 2018, dated 2025).
Marks after values point to notes of the source that are not given here.

T1: biot-AGE-BSA binding to His9-hMSR1 (Homo sapiens, UniProt P21757)
T1 construct: human MSR1 extracellular domain expressed with a N-terminal nonahistidine tag; His9 (nonahistidine) (N); purchased R&D Systems 2708-MS
T1 sequence (P21757 77-451 limits assumed): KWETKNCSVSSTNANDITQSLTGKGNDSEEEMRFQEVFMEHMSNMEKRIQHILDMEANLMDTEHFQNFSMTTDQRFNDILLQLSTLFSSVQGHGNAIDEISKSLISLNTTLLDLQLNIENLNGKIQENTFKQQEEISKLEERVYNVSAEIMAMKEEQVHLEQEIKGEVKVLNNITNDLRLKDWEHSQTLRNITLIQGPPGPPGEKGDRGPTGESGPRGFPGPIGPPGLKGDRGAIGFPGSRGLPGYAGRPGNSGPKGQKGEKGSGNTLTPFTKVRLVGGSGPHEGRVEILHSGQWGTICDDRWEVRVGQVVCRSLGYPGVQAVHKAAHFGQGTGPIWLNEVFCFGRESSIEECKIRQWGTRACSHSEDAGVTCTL


Experiments:
[1] = system: HEK293.mfMSR1 cells (monkey MSR1); experiment: Electrochemiluminescence antibody binding assay on MSR1-expressing cells; format: cell-based, Macaca fascicularis
[2] = biological target: T1, biot-AGE-BSA binding to His9-hMSR1; experiment: Competition sandwich ELISA, blocking of biot-AGE-BSA binding; conditions: 400 pM biot-AGE-BSA
Method: The ability of anti-MSR1 antibodies disclosed herein to block the binding of various ligands to human MSR1 was measured using three competition sandwich ELISA assays. The ligands used in the assays were: (1) acetylated LDL (Ac-LDL), (2) oxidized LDL (Ox-LDL), and (3) advanced glycation end-products of bovine serum albumin (AGE-BSA).
For the assay, recombinant monomeric human MSR1 protein comprised of a portion of the human MSR1 extracellular domain expressed with a N-terminal 9-Histidine tag (His9-hMSR1; R&D Systems, Cat #2708-MS) was coated at a concentration of 2 μg/mL in PBS on a 96-well microtiter plate overnight at 4° C. for use in competition ELISA assays with Ac-LDL, Ox-LDL, or biotinylated-AGE-BSA (“biot-AGE-BSA”). […] Anti-MSR1 antibodies or isotype control antibodies were serially diluted as appropriate for each tested ligand and added in duplicate for each serial dilution set to microtiter plates coated with His9-hMSR1. Buffer alone was also added to wells on each coat. After 1 hour incubation at room temperature, without wash, a final constant concentration of 50 pM Ac-LDL (Life Technologies/ThermoFisher Scientific, Cat #L-35354), 5 nM or 10 nM Ox-LDL (Alfa Aesar, Cat #J65591), or 400 pM biot-AGE-BSA (R&D Systems, Cat #BT4127) were added to plates with His9-hMSR1, and the plates were incubated for an additional 1 hour at room temperature. (Concentrations of Ac-LDL, Ox-LDL and biot-AGE-BSA for antibody inhibition assays were selected from the approximate midway point within the linear portion of individual binding curves of Ac-LDL, Ox-LDL or biot-AGE-BSA to plate-coated His9-hMSR1.) Wells were washed, and plate-bound Ac-LDL or Ox-LDL were detected with anti-LDL rabbit antibody (Alfa Aesar, Cat #J64398) in combination with anti-rabbit IgG (H+L) specific donkey polyclonal antibodies conjugated with horseradish peroxidase (HRP) (JacksonImmunoResearch, Cat #711-035-152) and biot-AGE-BSA was detected with a streptavidin-HRP (ThermoFisher Scientific, Cat #N200). Plates were developed using TMB substrate solution (BD Biosciences, Cat #51-2606KC & Cat #51-2607KC) according to manufacturer's recommendation and absorbance at 450 nm was measured on a Victor™ Multilabel Plate Reader (PerkinElmer™). This assay was conducted in four different assay runs.
Data analysis was performed using a sigmoidal dose-response model within Prism™ software (GraphPad). Percent blockade at maximum concentration of the antibody tested in each assay was calculated as an indicator of the ability of the antibodies to block the binding of Ac-LDL, Ox-LDL or biot-AGE-BSA to His9-hMSR1 on the plate relative to the baseline of the assay. In the calculation, binding signal of the same concentrations of Ac-LDL, Ox-LDL, or biot-AGE-BSA used for the assays in the absence of antibody was referenced as 100% binding or 0% blocking, while the baseline of the assay, defined as binding signal of the sample of buffer without MSR1 ligands or antibody, was referenced as 0% binding or 100% blocking. The maximum percent blockade at the highest concentration of antibody tested in each assay are reported for all antibodies. Negative percent blockade numbers reflected higher MSR1 ligands binding to plate coated His9-hMSR1 in the presence of antibodies.

[3] = system: Msr1^hu/hu ApoE^−/− mice, peritoneal cells; experiment: Ex vivo LPS-induced cytokine production by peritoneal cells after in vivo dosing; set-up: species or system mouse; conditions: for Cytokine IL-6 / Cytokine KC-GRO / Cytokine TNF-α: ex vivo LPS
Method: To examine the anti-inflammatory effect of the anti-MSR1 antibody-steroid conjugates, an ex-vivo and in vivo LPS-induced inflammatory immune response model was performed.
Generation of a mouse inflammatory immune response model. Mice homozygously expressing human MSR1 extracellular domain in place of the mouse MSR1 extracellular domain and with a homozygous deletion of the ApoE gene were utilized (resulting mice referred to as Msr1^hu/hu ApoE^−/− mice).
Assay protocol for ex vivo LPS-induced responses. In ex vivo LPS challenge experiments, mice were intraperitoneally administered with 10 μL/g of anti-MSR1 antibody-steroid conjugates (H1H21234N-N297Q-LP13), isotype control steroid conjugate (Isotype control-LP13), unconjugated anti-MSR1 antibody (H1H21234N-N297Q) and isotype control antibodies at different time points (24, 48, and 72 hours) prior to harvesting the peritoneal cells from peritoneal cavity. […] All mice were sacrificed at 0 hour time point and peritoneal cells were obtained from the peritoneum by the peritoneal lavage technique. In brief, 5 mL of ice cold 1×PBS (ThermoFisher Scientific, Cat #20012027) containing 2% BSA (Gibco, Cat #A9576) and 0.6 mM EDTA (ThermoFisher Scientific, Cat #15575020) were injected into the peritoneal cavity using 27 g needle. […] The resuspended cells were plated at 500,000 cells per well in 24-well tissues culture plates and incubated with or without 10 ng/mL of LPS for 18 hours.
Measurement of cytokines at 18 hours post-LPS ex vivo challenge. Supernatants were collected into 96-well round bottom tissue culture plates at 18 hours post-ex vivo LPS challenge and stored at […] until further analysis. Cytokine concentrations in the supernatants were measured using a Proinflammatory Panel 1 (mouse) multiplex immunoassay kit (MesoScale Diagnostics, Cat #K15048D) according to manufacturer's instructions. Electrochemiluminescence was read on a Meso Scale Diagnostics SECTOR® instrument. Data analysis was performed using GraphPad Prism™ software. Statistical significance within the groups was determined by one-way Anova with Turkey's multiple comparison post-test (*p<0.01; **p<0.001; ***p<0.0001).

[4] = administered 24 hours before peritoneal cell isolation
[5] = administered 48 hours before peritoneal cell isolation
[6] = administered 72 hours before peritoneal cell isolation

Molecule | Ratio of 11 nM Antibody Binding Signal (RLU) to isotype control, HEK293.mfMSR1 [1] | Anti-MSR1 antibody (300 nM) blocking of biot-AGE-BSA binding to His9-hMSR1 % Blocking [2] [%] | other results
H1H21227N-N297Q: "modified versions of 21227N (H1H21227N-N297Q and H1H21227N-N297D)"; anti-MSR1 antibody "with a N297Q single point mutation" (antibody, V domains shown) VH: QVQLVQSGAEVKKPGASVKVSCKVSGYTLTELSIHWVRQVPGKGLEWMGGFDPEEGETIFAQEFRDRVTLTEDTSPDTAYMELSSLKSEDAAVYYCTTPRYCNNGICYDYWGQGTLVTVSS VL: DIQMTQSPSSLSASVGDRVTITCRASQSISNYLNWYQQKPGKAPKLLIYTASSLQSGVPSRFSGSGSGTDFTLTISSLQTEDFATYYCQQSYSNFPITFGQGTRLEIKR | 23 | 96 | –
H1H21231N-N297Q: modified version of "21231N (H1H21231N-N297Q) anti-MSR1 antibodies" with "a N297Q single point mutation" (antibody, V domains shown) VH: EVQLVESGGGLVQPGGSLRLSCAASGFTFSDHYMDWVRQAPGKGLEWVGRTRNKANSHTTEYTASVTGRFTISRDDSRNSLYLQMNSLKTEDTAVYYCVRAGIIGTLFDYWGQGTLVTVSS VL: DIQMTQFPSSLSASVGDRVTITCRASQSISSFLNWFQQKPGKAPKFLIYAASSLQSGVPSRFSGSGSGTDFTLTISSLQPEDFATYYCQQSYSSPPITFGQGTRLEIKR | – | −50 | –
H1H21227N-N297D: "The 21227N antibody was also produced as a third version with a N297D mutation" (antibody, V domains shown) VH: QVQLVQSGAEVKKPGASVKVSCKVSGYTLTELSIHWVRQVPGKGLEWMGGFDPEEGETIFAQEFRDRVTLTEDTSPDTAYMELSSLKSEDAAVYYCTTPRYCNNGICYDYWGQGTLVTVSS VL: DIQMTQSPSSLSASVGDRVTITCRASQSISNYLNWYQQKPGKAPKLLIYTASSLQSGVPSRFSGSGSGTDFTLTISSLQTEDFATYYCQQSYSNFPITFGQGTRLEIKR | 25 | 97 | –
H1H21227N: "anti-MSR1 antibodies ... (21227N, 21231N, 21234N) were produced with the original human Fcγ portion"; "H1H" = human IgG1 Fc (antibody, V domains shown, human IgG1 Fc, "anti-MSR1 antibodies ; (21227N, 21231N, 21234N) were produced with the original human Fcγ portion"; "H1H" = human IgG1 Fc) VH: QVQLVQSGAEVKKPGASVKVSCKVSGYTLTELSIHWVRQVPGKGLEWMGGFDPEEGETIFAQEFRDRVTLTEDTSPDTAYMELSSLKSEDAAVYYCTTPRYCNNGICYDYWGQGTLVTVSS VL: DIQMTQSPSSLSASVGDRVTITCRASQSISNYLNWYQQKPGKAPKLLIYTASSLQSGVPSRFSGSGSGTDFTLTISSLQTEDFATYYCQQSYSNFPITFGQGTRLEIKR | 26 | 99 | –
H1H21231N: "anti-MSR1 antibodies ... (21227N, 21231N, 21234N) were produced with the original human Fcγ portion"; "H1H" = human IgG1 Fc (antibody, V domains shown, human IgG1 Fc, "anti-MSR1 antibodies ; (21227N, 21231N, 21234N) were produced with the original human Fcγ portion"; "H1H" = human IgG1 Fc) VH: EVQLVESGGGLVQPGGSLRLSCAASGFTFSDHYMDWVRQAPGKGLEWVGRTRNKANSHTTEYTASVTGRFTISRDDSRNSLYLQMNSLKTEDTAVYYCVRAGIIGTLFDYWGQGTLVTVSS VL: DIQMTQFPSSLSASVGDRVTITCRASQSISSFLNWFQQKPGKAPKFLIYAASSLQSGVPSRFSGSGSGTDFTLTISSLQPEDFATYYCQQSYSSPPITFGQGTRLEIKR | 75 | −44 | –
H1H21234N-N297Q-LP13 (conjugate) VH: QVQLQESGPGLVKPSETLSLTCTVTGGSISRNYWSWIRQPPGKGLEWIGYIYYSGSIDYNPSLKSRVTISVDTSKNQFSLKLSSMTAADTAVYYCARDRWNWKYGMDVWGQGTTVIVSS VL: EIVLTQSPGTLSLSPGERATLSCRASQTVRNNYLAWYHQKPGQAPRLLIYGASSRATGIPDRFSGSGSGTDFTLTISRLEPEDFTVYYCHQYGNSPWTFGQGTKMEIKR | – | – | Cytokine IL-6 [3, 4]: 21.1 ± 1.38**** ng/mL; Cytokine KC-GRO [3, 4]: 9.3 ± 1.7 ng/mL; Cytokine TNF-α [3, 4]: 0.26 ± 0.08*** ng/mL; Cytokine KC-GRO [3, 5]: 6.3 ± 2.3* ng/mL; Cytokine TNF-α [3, 5]: 0.58 ± 0.06* ng/mL; Cytokine IL-6 [3, 6]: 50.7 ± 14.1* ng/mL; Cytokine KC-GRO [3, 6]: 13.1 ± 1.1 ng/mL; Cytokine TNF-α [3, 6]: 0.47 ± 0.1** ng/mL; effect on ex vivo LPS-induced cytokine production (IL-6, KC-GRO, TNF-α) by peritoneal cells ([3]; i.p. dosing 24, 48, 72 hours (conjugates, antibodies) or 2 hours (free steroids) before cell harvest, 10 ng/mL LPS 18 hours): efficacious in inhibiting LPS-induced cytokine production by peritoneal cells in a time-dependent manner
